The values below come from publication PMC4573853 (Genes & Development, 2015).

One experiment has as its target T1, Taf14 (residues 1-138) (S. cerevisiae, UniProt P35189 1-138).
T1 sequence (looked up): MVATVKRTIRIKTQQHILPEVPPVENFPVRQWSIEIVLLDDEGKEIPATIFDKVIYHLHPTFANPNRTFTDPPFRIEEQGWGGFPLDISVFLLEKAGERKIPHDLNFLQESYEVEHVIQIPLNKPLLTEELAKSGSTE
As to the kind of experiment: crystal structure.

Experiment [1] deals with T2, Taf14 YEATS domain (residues 1-132) (S. cerevisiae, UniProt P35189 1-132).
T2 sequence (looked up): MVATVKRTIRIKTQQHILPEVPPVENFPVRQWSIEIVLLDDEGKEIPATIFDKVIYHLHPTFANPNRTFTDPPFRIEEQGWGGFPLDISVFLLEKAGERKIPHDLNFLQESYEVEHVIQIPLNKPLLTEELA
In words: NMR titration.

No end group written: not given here.

Regarding Ac-QTARK(Ac)STGG (peptide, UniProt P68431 6-14, looked up) [H3K9ac(5-13) peptide], the binding result (with Taf14 (residues 1-138); in experiment [1]) was “binds” in each case.
